Article PMC8720280
Each block holds one substance with its values, some of them ahead of it.

Tests used:
Assay in all cases: BLI
[1] = target: KYGQ:AAGA (45-48) Mut rDR5
[2] = target: SGE:AAA (135-137) NS Mut rDR5
Lexatumumab = settings: Loading ID Biot-Lexa
Tiga = target: Tiga
KMTR2 = target: KMTR2
AMG655 = settings: fit R^2 0.9925

koff [1]: 0.000153 s⁻¹
koff [2]: 0.000625 s⁻¹
Substance: Tigatuzumab

kon (Tiga; fit R^2 0.9770): 9.34e+06 M⁻¹ s⁻¹
Substance: WT DR5 recombinant protein (IgG4-Fc tagged extracellular domain of human DR5) (from UniProt O14763-1) E98A; M99A

koff (KMTR2; fit R^2 0.9806): 1e-07 s⁻¹
kon (KMTR2; fit R^2 0.9806): 750000 M⁻¹ s⁻¹
koff (Tiga; fit R^2 0.9860): 0.000153 s⁻¹
kon (Tiga; fit R^2 0.9860): 1.72e+06 M⁻¹ s⁻¹
Substance: WT DR5 recombinant protein (IgG4-Fc tagged extracellular domain of human DR5) (from UniProt O14763-1) K45A; Y46A; Q48A

More lines, now with the values behind:

Substance: WT DR5 recombinant protein (IgG4-Fc tagged extracellular domain of human DR5) (from UniProt O14763-1) C103_R104insA
Kd (Lexatumumab; fit R^2 0.8916): 0.266 nM
kon (Lexatumumab; fit R^2 0.8916): 2.14e+06 M⁻¹ s⁻¹

Substance: WT DR5 recombinant protein (IgG4-Fc tagged extracellular domain of human DR5) (from UniProt O14763-1) C103_R104insS
Kd (Lexatumumab; fit R^2 0.8774): 0.215 nM
kon (Lexatumumab; fit R^2 0.8774): 1.5e+06 M⁻¹ s⁻¹

Substance: WT DR5 recombinant protein (IgG4-Fc tagged extracellular domain of human DR5) (from UniProt O14763-1) S135A; G136A; E137A
koff (AMG655): 6.82e-05 s⁻¹
kon (AMG655): 539000 M⁻¹ s⁻¹
koff (KMTR2; fit R^2 0.9964): 2.01e-05 s⁻¹
kon (KMTR2; fit R^2 0.9964): 791000 M⁻¹ s⁻¹
koff (Tiga; fit R^2 0.9793): 0.000625 s⁻¹
kon (Tiga; fit R^2 0.9793): 742000 M⁻¹ s⁻¹
